Measured values reported in the DeepSol protein solubility set.

Assay: soluble on expression in E. coli; label from the status in PepcDB or PDB records

Sequence	soluble on expression in E. coli
MGSDKIHHHHHHQSLKLSDNVVRIGVLTDLSGVYSELSGQGSVKAAQMAAADFMAMNPSFRGKVQVIGVDHQNKADVASNKAAEMIDRQKVDVLMDLPTSSAALAASEVARQKKVPVMVVTGGTTALTNEKCNKYTFHYAYDNYMLANGTGTAVTKRGGNSWYIIYPNYAFGQDLNRQMTAAIQENGGKLVAPSDATPFPNTDFSSYLLKAQGLKPKVFGTMQAGADLVNVVKQYNEFGLRQQGIGLGIGLLFETDVAALGQDAFAGALATVPWYWNMDQRARDWAAKFEKAFGKKPTWAQAGVYSATMTYLQAVARAKSDDGDAVVKALEGHRFSDFFARNAYVRPQDHRVMLDVYTVQVKPKAQAKENGDYFNKVATIPAARAFMPLSESKCRM	not soluble
MPSAAPSSSVLLVQISDSHLFAEADGALLGMSTRDSLEKVVDLVLAEQPQVDLVVASGDISQDGSVESYEAFRRISTQIAAPARWFAGNHDELPQMEHVAQAEGLLEPIINIGRWRVTLLDSAVPGSVPGFLAAGQLQLLEQSLSEAPDRHHLVCLHHHPVAIGCEWMTPIGLRNADALFAVLDRFPQVRAVLWGHVHQEFDQMRNGVRLLASPSTCIQFAPGSADFKVDTTAPGYRWLRLHDDGRLETAVSRVVGMQFEVDYGGTGY	not soluble
MSARMDNDTAALLERIRSDWARLNHGQGPDSDGLTPSAGPMLTLLLLERLHAALGREIERTYAASGLNAAGWDLLLTLYRSAPPEGLRPTELSALAAISGPSTSNRIVRLLEKGLIERREDERDRRSASIRLTPQGRALVTHLLPAHLATTQRVLAPLSAQEQRTLEELAGRMLAGLEQGV	soluble
MQLILLLVSLLMLIATFIEARDSDIDKKSLRTERLGFCPRYETWRKCGNGCEKSCTHPRQPPFSQCKLPCIPYSCRCNPGFYRDNQGTGRCVRLRRCKKW	not soluble
GFNPIIGTGISYKLSKKWSLAAEAFYSRRKVTYTSEVKDQNYIDRNTIIINNNPVTFEVSTTFTGTTKGEFDIHYLEFPLLAQYAIGNNWQIHAGMYYSWAFSKTNKGTATGIIGRTDISNPNTVTDKEYNYSKEVNSRYYGFVAGAQYQLSPAVALDLRATYSCKSLYKEDWEGVPYTLKDLYVQFTVKYFFIRAKD	not soluble
MKMQKELSVYLKQILQAAQYIRLYTDKMDYGQFSADTKTVQAVVFNLFLIGENATHILKSYPEFAEETKYLNWIGMRGYCAIGLPMATLK	not soluble
MNIHKALCLSAGVSVALISLAAQAAETVTIATVNNGDMIRMQRLSKIFEQQHPDIKLNWVVLEENVLRQRLTTDIATQGGQFDVLTIGTYETPLWGAKQWLEPITDLAPEYDLEDIFPSVRQGLSVKNTLYALPFYGESTITYYRTDLFKQAGLSMPERPTWTQLGEFAAKLHQPDKGVYGMCLRGKAGWGENIALLSTMANAFGARWFDEHWKPELNSPEWANAANFYVNTLKNYGPPGVSSNGFNETLALFNSGKCALWVDASVAGSFTTDKEQSKVVDSVGFAPAPVEVTDKGSSWLYAWSLAIPATSRHKDAAKAFITWATSKAYIQLVAEKDGITNVPPGTRTSTYSEAYLKAAPFAKVTLQMMQHADPAQPSAKPVPYVGIQYVTIPEFQAIGTSVGKLFSAAVTGQTTTEQALTAAQAVTEREMKRAGYPK	not soluble
MAHHHHHHMYSSVRPYKILQKVKRNDNNSNSNSNNNSNSNSNSSSIRNPPNEAKKEPTEREDSGKKKPVEKKKKYEDLKYYECNRKSLSTKSQEAEGRDKITKYNNKTNQHADNNHVKKLQSEKVLKKKEDMLVTLLKKEQSSVHNKKIIIRHLPPTLSEDNFFESFPSNLKDELDYYYYVNGCVPKNQGGDITHSRMYLSFKDDLKTKEFIKTQHGKFFYDSNGGKFKAMVSFAPYQTIIHKNKLDEMNNTLESDAYFLKCCEEMNNPQEPVKKDDDNADLSNVIKEDGVILPPLVVALRKKLKNKKLK	not soluble
MNTLISRQLGLLLHAHECVRRDIKIREAAEKNEPAPHAMCKIQDCVIMKEVLKHMTSCKEGPKCNSVHCASSRTILSHWKKCFNEECPVCKPIIEQRTAPPQDTTPAEPKKPEHDQIWHLEVPKTYRSELIEKIYKGIMSNVKPGTLSEAQMDTWKEYSRSAELQIFDTAQKLEAYYHMAREKVCRYQEGFPRRQKTEEKDESDGSEKEDEADDRLEGTSTDYQGS	not soluble
MGSDKIHHHHHHMNARTLDPTERLIEKEPYYEPVGEEIALFEAAYRQRIPVLLKGPTGCGKTRFMEHMAWRLQRPLITVSCHDDLTASDLVGRYLVKGGETVWVDGPLTRAVRCGGICYLDEIVEARKDTMVVIHPLADDRRTLAMEKLGQMLEAPAEFCLAISYNPGYQSVLKDLKQSTRQRFVALEFDYPSAALEQRIVATESGVSDAVADKLVRFAQMTRNLKGSGLEEGASTRLLVHAGKLISDGISPVTACKSAVAQAVTDDADMLKAIQELSSSVF	not soluble
MLLAYIDEIGSTGAFIHPNHNRFSDSPAFGYGGFIIPEESAREFGSYFAERKKIFFRNEIPNNIDPGRWEKKGSDLLFALAINERPQNLRLLGSLISKLRKLDGHLFYYAEEKPIGTPKATNCGATEFRDREETAMRETLNRIARHADYEDSRVLVMMDQINEKSRIQRLPAMYAHILGRASEHQEMRRIVEPPMHIDSQLSTNIQFADWICSLAKRAIEYQLVEDSRYSWVSTAEALTPARGSFTYESKLRLYHRAIDDLNHSSILRPTRPLFNSKINQTLDEENRRKLEKVRAATIKEANN	not soluble
MSLASLPGGASTLQETYQDWTVSCQSQKDTTACVMRQEQSSAQTGQRVLTAELRNVAGGKVDGVLLMPFGLDLAKGASLKIDDTAGPNLTFSTCLPQGCLAPVSFDAKQVAALKSGTNINVTTTALSPSQPVAFKISLKGFGAALDRIQALTKEGHHHHHH	soluble
MGSDKIHHHHHHMAKFDLTTPWGRFKTYLHYLWNDHAYLRLGFSNAHWISPELVRANQPWPFQLAWWKKRGIKTIVNLRGGFDGSFYALEKDACERLGLNFVDFVITSREVPIRERVRGAKELFERIEYPALMHCKSGADRAGIMSVFYAHYRLGQPIREAMQQLGPRYLHIKHGNTGVLDYVFEQYLEKGEPKGLTFSDWVESDDYDPVEMKKTFRAGMLGKVLTDKILRRE	not soluble
MSFVPCTTAIYAFSKNHQPVRTVQSGETFVIETYDCFQNQITSSETPFDSIDWNHINPATGPIYIEGAEPGDILAVKIEQIRLKGQGVMAVGPGLGVLGDRIPQFEAKMIPVEENRAVFDEHLSIPLNPMIGVIGVAPSGEDVSCGTPGPHGGNMDTKLITTGATVYFPVFVKGALFALGDLHAAMGDGEIGVSGIEISGEVTVTVRVMKGYSLNHPLLQNDDGIATIVSAKTLDEAVKQSVEEMVNLLLPHTPLTLNHLTMVLSAVGQTQISQVVDPLVTARFFVPRFVLEAYGIRLFED	not soluble
MGSDKIHHHHHHMKLQQLEYFMAVSKYASFTLASQKLHTSQPYLSTQLKELERELGASLILRDKKHCRLSPAGEVVAKRTEMIFALIKEAQEEINELVTQGSTTTIRIGTNLIDIDKAFGEVLLLFNQSYPYVSIDFKYYYDLETALETDLIDIGIGIFLDTSIPLEKELIYTESYLLCVNKNHPLAHADSVTIDEIRSLPFAAYSDQVYEKKVFKRWERKINWENRQIVIELPSLHLVLDMVQREKACSILPYSLTDELNRRNLVGIPLEDSPERAIYLVQNNHHGHCEAHRYLFEQLRYLF	not soluble
MAIIIGADKAGQELKEVIKDYLKEGKYEVVDVSENEVRDFVDTTLAVVKEVNASDDNLGIVIDAYGVGSFMVATKIKGMVAAEVSDERSAYMTRGHNNARIITLGSEISAPGIAKNIIKGFVEGKYDGGRHQVRVDMLNKMC	soluble
MEITLNSGFKMPIIGLGVWRMEKEELRDLIIDAIKIGYRHLDCAANYKNEAEVGEALTEAFTTGLVKREDLFITTKLWSSDHGHVIEACKDSLKKLQLDYLDLFLVHIPIATKHTGIGTTDSALGDDGVLDIDTTISLETTWHDMEKLVSMGLVRSIGISNYDVFLTRDCLAYSKIKPAVNQIETHPYFQRDSLVKFCQKHGICVTAHTPLGGATANAEWFGTVSCLDDPVLKDVAEKYKQTVAQIVLRWGIQRNTVVIPKTSKPERLEENFQVFDFQLSKEDMEVIKSMERNYRTHQTAKFWGIELYA	soluble
MLQGDITMRYNSLNSYLKEKFGCKIYKLALSGGLSCPNRDGTISTGGCIFCSNGGSGDFAADKMLSITEQIESAKNRVSAKIKNGKYIAYFQSFTNTYGDIDYLRSIFTEAINHPDIVALSIGTRPDCLPDEVLNLLGELNKIKPVWVELGLQTIHENTAKYINRGYTLDVFNTAVNNLNKINVDVIVHLIIGLPFESKEDILESVKYVSSMNISGIKLQLLHVLKNTPLEKEYSLNKFEVLSMEEYVNIIAECLRYIPKSIVIHRLTGDGPKSILVAPLWSGNKKAVLNYMNKRFNELNVIQGSLCS	not soluble
MVYPRLLINLKEIEENARKVVEMASRRGIEIVGVTKVTLGDPRFAETLRKAGIGILGESRIRNVLRMKKAGIEGPFMLLRLPMMSELVEDVKHFDYIMVSDPDVAKKVDELSREMKRNVKIIYMIDVGDLREGVWFEKAVEEIAQCRGANIVGIGTNFGCYGGIIPTREKFEILLDIKEKLEKNHGFNIEIVSGGNTPALYALENGEIPEGINQLRIGEAIVLGRDITNNRVIDWLSQNTFLIEAEVIEVKEKPSVPLGKRGLDVFGRKVDFVDRGIRKRAICALGEQDIDSRGLIPVDKGVEVLHASSDHIVLDVTDFGDVKVGDVFRFRMTYSCLLKAMTSPFVEKVYEPSI	soluble
MRKYSQRHIPVMVREVIEFLKPEDEKIILDCTVGEGGHSRAILEHCPGCRIIGIDVDSEVLRIAEEKLKEFSDRVSLFKVSYREADFLLKTLGIEKVDGILMDLGVSTYQLKGENRGFTFEREEPLDMRMDLESEVTAQKVLNELPEEELARIIFEYGEEKRFARRIARKIVENRPLNTTLDLVKAVREALPSYEIRRRKRHFATKTFQAIRIYVNRELENLKEFLKKAEDLLNPGGRIVVISFHSLEDRIVKETFRNSKKLRILTEKPVRPSEEEIRENPRARSGRLRAAERIEEGGD	soluble
ATGPRYKVPMRRRREARTDYHQRLRLLKSGKPRLVARKSNKHVRAQLVTLGPNGDDTLASAHSSDLAEYGWEAPTGNMPSAYLTGLLAGLRAQEAGVEEAVLDIGLNSPTPGSKVFAIQEGAIDAGLDIPHNDDVLADWQRTRGAHIAEYDEQLEEPLYSGDFDAADLPEHFDELRETLLDGDIEL	soluble
MGSDKIHHHHHHMLKRLLDYNDGEEMDIVVLIKNSQLRRNKKDKLFLAMQFGDGSGEIRGNYWDASHQDAATFSTGTIVELNGKREEYQGRPQIRIYSLRVVGPQEGYSLDEFIKSAPETTNDMKGEIDDFVKQIQNRTWRSIVEYLLKKWDKRFFDYPAGKSNHHALRGGLAYHTLAMLKDARGLADNYEQINRSLLYAGCILHDMGKVQELTGPAATQYTIEGNLVGHLVLIDEQIMLAAQDLKIDLESEDLLLLRHMVLSHHGKFEYGSPKLPALLEAEILHRIDDLDAMVYAVTNALQHTGKGTFTEPLQSQDGKRYYRPKNDPELDQAKNLE	not soluble
GPGSMPLERSFIDPGHASMGYEAGLIPRLRRDSIVRGVLEENEDMLREIDLLRDTVTKQAQELFTATKRIHVLESRLARLEGAEDASHERTDDSDNVEEVTSVDKAGILRSIFRAISSCQFGDRHTRIRAYKQGLVRKSAEKARDFGEKSEKKSELPGKEQQDFLGHAFHESNKRLDEVSSLLQSYRKTPSFLVSAYDELVIDCMMEIIRLSKKMNLMTVGDFGALAD	not soluble
MDVVILDTGCANLSSVTYAVQRLGYTPVISRDPAVVLRADKLFMPGVGTAHAAMEQLRQRELIELIKSCTQPVLGICLGMQLLATSSEESGGITTLGMIDAPVKKMTDFGLPLPHMGWNQITAQAGNHLFRGIPDGTYFYFVHGYAMPICPNTIAQTNYGEPFTAAVEKDNFFGVQFHPERSGAAGAQLMKNFLEM	not soluble
